Data: the DeepSol protein solubility set

Assay: soluble on expression in E. coli; label from the status in PepcDB or PDB records

Soluble on expression in E. coli, not soluble:
RDIAQRITGATLRAPPCHEEVREAIRDAVGRTLVSNRKVGVAVSGGLDSTILCSELDSLGITDLDLISIQALGSQDGITDLSALELKGEAWKSWRLTASRFDPATYWRDLRRAIAILGEPTQMTSAPLYLGLAEKAAEAGVVVLLLGEGADELFCGYRSYLPMLSGWSLRDFLFRPLERAVCQRLFSGEIQARCAAALDVFTRALPEGDQWTQLRAAEMSHNLEPLLLRADHTLMRCSIEGRTPFLHGDVADLAFSLPIDSLLSPNQTKVFLRQAYFRDLPAHFSTEIKKPFRAPVATWFVGPLKAWLTEEFSRQEAVFACLGIEPGGLEHVLTKTAQGHARMAKVAFCLLTLGFWIDWL, MDIKAMGYVVIPRLPFKEFRDEKIYDHLFKRAEYRPNQELELGQTIIKVVELAKDFNWSAAQIKYSLDRMEKQGYIKLHRLPQKRGLIVTILHYADYIQLGNYMKNKALEPAQIEHQEVDDKMKNAFELYENKVARSVGPMEAQRIGYMVDDYGEEKVMEAIKTAFQLKGKAASLSYVQAILSNPFTQKRKEKQYGYKQSSQYRHRISNDHAGTSGKVSPLFGNKTGRIRRKG, MGSDKIHHHHHHMGILVVGSVAFDSVETPFGRVENVLGGSATYFSTSASFFTDVSLVAVVGEDFPQEHVEFLNSRNIDLRGLAREGGKTFHWKGKYGYDLNEAQTLETHLNVFESFRPQIPAAYRDAEFLFLANIDPELQMEVLSQVEKPRVIACDTMNFWISSKPEALKAVIAKVDIFIINEGEARQFTQEANLTKAARKILAMGVKTLVIKRGEYGVLMFTDHSVFAAPAFPLEDVFDPTGAGDTFAGGFMGYLANTGDTSETGIRQAIIFGSVMASFNVEDFSLNRLKRLEYREIEDRYRSFKALTHFEGLAGG, MGSDKIHHHHHHVSKIGIPRTLAYFIYFPLWKTFFEELGHEVVLSPATSKAILDRGVKEAVNDACIPIKLYHGHAAALAGKVDYIFCPRLVSVRSHGDFGTETFCPKFLGLPDMLRLAMDDLPEIIDVRVDLKQGKDGLWQLSQEIGKGLGNSREEIKRAFNRAREQQRQYNRLLYQEMLPLEALKIIEQKNPIPKKEKSNENYDLQVAVVGYPYLLYDAYINAGLLAILEKEKVKVYTQDIISDRKMNQQAKTLPKSTFWYFSNRVIYGALHFMQRPEIEGVIHLTAFACGPDSMVDRLLEIESRRRGNRPYLSIAVDEHTGEAGVRTRIEAFVDMLRYRRERK, MQSRWNDTEAETFAAEARARGEPAELGLRVYSSRLIGQDPDLVLHGGGNTSVKIPSPEGMLIHVKGSGWDLGDIEAPGLPAMHLAPLLETRDVPQMSDEEMVALLRAHLLDPAAPTPSVEALLHAYMPQAFVDHTHATAILALADQADMEPVVAELFGGRVGWVPYVMPGYALSHACREAFARDPSVEGLWLEQHGLFTFAETARESYERMIGFVTMAEEHLAARGVPLPGPEANDGTAPERLAADLRAALAARGALGADPSLDFRSSPSIRSYLGRADLPELARRGTATPDHVIRLKPFPMLLEPTAGPAEIEAALDAFEAEYRAYFDRNAPNASEAKIMLDPLPRVVLVPGLGGWGVGANGKAARIAGDLLEQTSRVVNAAETYRRFTPISEGDLFDMEYWSLEQAKLRKA, MAHHHHHHMANSRASTLAAAAAAASTAAVKPLSYVSLRSHDGKHVILPVAAAAGSRVLHGIFQGLYVMRLHQCNSPADQPPHAQHEQYPMVEEDAQQGELHIPRSGSSSSSGSDVANKAHGSAEVKVDDPIPIIEDEDDIEEDEARHQVNGAAYRSYAAVFPSNVACVPPPPSPLLSTSPPAAPSPCVPPLLEVPICSLEFSTLMRVAEFLVVKITLASHPHYLHEANVFGDLDRTSERDQLVAMQVLLGADFLNC, MTATWEKKEGNEGLLTVTVPAEKVNKALDQAFKKVVKQINVPGFRKGKVPRPIFEQRFGVEALYQDAIDILLPDAYGEAIDETDIKPVAQPEVSVTQIEKGKDFIFEATVTVEPEVKLGDYKGLEIEKQETELSDDELQEAIDHSLGHLAEMVVKEDGVVENGDTVNIDFSGSVDGEEFEGGQAEGYDLEIGSGSFIPGFEEQLEGMKVDEEKDVVVTFPEEYHAEELAGKEATFKTKVNEIKFKEVPELTDEIANELDAEANTVDEYKENLRKRLAEQKATDAENVEKEEAITKATDNTTIDIPEAMVNTELDRMVSEFAQRIQQQGLDLQTYFQISGQDETQLREQMKDDAEQRVKTNLTLTAIAEAEKIEATDEDIDKELEKMSKQFNISVEDIKNTLGNTDIIKNDVRIQKVIDLLRDNAKFVEGTKED, LNDAWFNSSVVRAMLTHTRVFGRYEGPEEKLFRTANYTEINCIDNYAPTEMIEVKVTDRSGAVVEGADIRFCIYNYSEFYPVVTKQSDAQGLASLRVGKGDMLIWAAKDGLFGYALSKADDRKPLAIALDNFEAQPEWADFKIVPPAGDPIPTTCSPQQISTNDARLLREDSIRAAYEATFATAEQSAALAAELGVDAPALTGILQTSRGNHADIEGFLRSVEAGKARQRAMDLLQTVSPKDLTDTPESLLKVIFRDMAEPAPEAASGEAYRHHLRYVASPRIYTEMLSSFVPTLRSILTAKEQEAMRQDPAELVRWVSSNIRLDTLYNTQYTTITPVGVWRAKRADLRSMGIFFVAMARTLGIPARYDEVTGKIQYSKELMPLRWSDVNLRESKTALKEQGSLALDYSPTALAPNPNYYSRFTVAELQPSGIIRTLYYDENEPTDLKTLFDRPKEMNAGHYFLVTGTRMASGSVLCRMRKFTVEAGKTARQPLELLHDSTDIQVIGSINAEQLYHDLSHAEDRSLLSTTGRGYFAMAILGAGQEPTNHALKDLEKVKADFEQWGRKLILLFPDADGHKRYKPADFPSLPETAVFGLDIQGRNAAMIREAANLPDATNLPIVIIADSFGRVVFVRQGYTIGLGEQMMQVIHRL, MDILLTLLDDKTSVASDWRILGIISLRGSTPRLAILLQVVQWAAFYCWRNYMSPYKDKRWRSKRDTALRRDKYECRNCKRFGITTTATVVHHVWFLRDYPKWWLCLWNLISLCEKCHNKMHNRDSDIPTELGEYWQDKIKPPTSATKKYFLEHHHHHH, MGSDKIHHHHHHMLLDHIFICVDENAPEADELVFLGLAEGTPNRHRGQGTANRRFFLPGVMLELLWVADLNELQSVTTRTLGLADRFAARKDGGSPFGFVFKPKNPRIGNSCPFPFRSYHPAYLPETLDMKVADATPRIEPLYVFIDFLPASCSTAQHHPCGIERLTSVHVTFPAQGAPSPVARMIDSLPGMSARVGREHLLELCFDDGKRGVRHDFRNRLPLIIRW, MHMEQDVNAALRPAYRHRYLQKGHHHSRNAVVDHQELTEKLNRLTSTSSLGSSLPSLSSLHSNSSIGTMPSAKIGDGSTSSLPMSSAKPMSTQTSEPQLPDVPEPNESLHNKTIDEFQKDQEKCDRLKARKAELEMRLRQKMQELKDVCVEEGDITGEMPVEINDVVLPGDDFPRLKRRVGTAYSIPDELIKADKADKMSQLETDVELHRRIVAAASRLATDKNTNKSVRKKRQKDLQAARLRLNRLEQGLQQMRHSASKPDISSLTSDSSNSWTASNSSGPMLTMAMTKSCPTTPRGSVPDLRNGLDDEKDEFDENVEDRVSRRAPSAISRHSLSQRYSGVSSSSTSSGSDSMGLGLPPRPTSRKSQQQQTTPFDDQLDNPMICEIPPPPSSAAAHPLYENVGYRSTSYRSSYRQAHYPTIQDEHTQRKRAQSAHSISTDNGATGRTSTYSVPLNDAAQKFREYDYDDEEDSTPTMDLPSHLINVRRLTSSISCQAGFATASLDRRYSKLNGGRLSSGGGGSDDVVRQNVTTRITTFPVATSAATVILSGKPYSASELPRFQPPPPVARVTHMPRGSLPPYSSATMGAQSPAPPPNGKLPTNPQMEALLSYYKQQQQQQHQQQSRSAPSQQPKTATIV, MCKSCYHCGEDVPANTDFKVEILGEVREMCCPGCETVAQTIVDSGLVSYYQYRTAPAEKADLVPEQLQALIHYDNEDVQSEFVRNHDN

Soluble on expression in E. coli, soluble:
MSLAEVTVVNFGGANGDAQKAAFNKPFEAQTGNKVTAVEYNGEQAKIKAMVEAKHVNWDVVEVESGDIGRGCDEGLFEKLDWSKIAKKADLVPEAPHTCGVGFFVWSTALAYNADKLKAAPSGWADFWDVKKFPGKRGMRKGARYNLEFALMADGVPVKDVYKVLATKDGQNRAFKKLDQLKPYIQWWEAGAQPPQFLVAGDVVMSTAFNGRIDAAQREGKNLKVVWNGSIYDLDYWAIPKGTPNKALAEQYIAYTLSQKAQQEYAKHIAYGPANLAAIKALDAKTQANLPNSPENGKSAVLQNLQFWTDHGDELEQRFASWASKEGHHHHHH, MSLKIIDFRLRPPAMGFLNARIYTRPDIRNRFTRQLGFEPAPSAEEKSLELMFEEMAAAGIEQGVCVGRNSSVLGSVSNADVAAVAKAYPDKFHPVGSIEAATRKEAMAQMQEILDLGIRIVNLEPGVWATPMHVDDRRLYPLYAFCEDNGIPVIMMTGGNAGPDITYTNPEHIDRVLGDFPDLTVVSSHGNWPWVQEIIHVAFRRPNLYLSPDMYLYNLPGHADFIQAANSFLADRMLFGTAYPMCPLKEYTEWFLTLPIKPDAMEKILHGNAERLLAQAGREGHHHHHH, MTFAPGFSGGLSPAYRLGSRRSPSPFSEEVRAEEGPGAGGFSQVFHTPCLCLGTMRWKSVLGLAVLLLASLALAQALTLDLRPYLVKVVEGKEVYEANPLAVRPGDVLEWRLVAENRAQGDLRQVALVIPIPKETYYLEGSAKPLQVGGTIVPPEFSFDGGKTFGRPPLKKRIRVVENGKEVEKEVEVKPEEYTHARWVIPVLSKGDKVMVSLRTIVR, PNFSGNWKIIRSENFEELLKVLGVNVMLRKIAVAAASKPAVEIKQEGDTFYIKVSTTVRTTEINFKVGEEFEEQTVDGRPCKSLVKWESENKMVCEQKLLKGEGPKTSWTLELTNDGELIDTMTADDVVCTKVFVRE, MSLEGEQHSRERDQQAIQYHYDVSNDFYKLWLDERMVYSCAYFPGGQETLDEAQTAKLDYICRKLQLRPGERLLDIGCGWGGLSLYAAQHYGVQVLGVTLSQAQLQEGQARVRVAGLEGQVQLELRDYRDVLSRGPAQFDKIASVGMAEHVGRRNMPEYFRSAYAALKPGGLMLNHAIGDGIGQARVPMWLQSGNFARKYVFPDGELLPVWETLKYASEQLFEVRDVENLREHYALTIGHWAARLEAHRPEALALLGEERLRLWRLYLGATSYYFRKGHLTLFQSLLAKPDAERAVPLPLSRAGLYREGHHHHHH, MKYNREKLKNKVCLAIIGMPHGIKGDVLLKILSSEPQRLKTYGTLYDDRGHSYEIVMLRMQKKNAIVHFKGVEDRSAAEALRGIHLYVARDQLVDDLTEDEFYQVDLIGLRVQDCTGRILGEVSGLFNFGAGDLLEMRLNTGKTVLIPFSKAAVLEVCIASGFLVVDPVAAGLSDGGENTLEHHHHHH, MRTVALGIVAMACLVAIAHGGNFFQDAEVSWGQGRGKIVDGGRGLDLTLDRSSGSGFQSKSEYLFGKIDMQIKLVPGNSAGTVTTFYLSSQGSTHDEIDFEFLGNVTGEPYTLHTNVFTQGQGQREQQFRLWFDPTQSFHTYSIIWNPQHVIFAVDGTPIRDFKNHEARGVAFPKSQPMRVYASLWNADDWATQGGRVKADWSKAPFVASFRDFNADACVWSNGAQRCPVGTMETVAAPAGGRRGGAGGWWNQELSDMSYRRMRWVQRKFMIYNYCTDAKRFPQGTPAECKLR, SFLSNVKYNFMRIIKYEFILNDALNQSIIRANAQYLTAAALHNLDEAVKFDMGAYKSSKDDAKITVILRISKTQLYVTAQDEDQPVLLKEMPEIPKTITGSETNLLFFWETHGTKNYFTSVAHPNLFIATKQDYWVCLAGGPPSITDFQILENQA
